Laboratory results published in the supplement of paper PMC10065799, “High-throughput profiling of sequence recognition by tyrosine kinases and SH2 domains using bacterial peptide display” (eLife, 2023).

Tests used:
[1] = tested on: AncSZ; test: phosphorylation enrichment, bacterial display (enrichment ratio); higher = better substrate or ligand; peptides without Tyr show the background
[2] = target: EPHB1 (UniProt P54762); test: as above
[3] = target: EPHB2 (UniProt P29323); test: as above
[4] = target: FGFR1 (UniProt P11362); test: as above
[5] = target: FGFR3 (UniProt P22607); test: as above
[6] = tested on: Fer (mouse); test: as above
[7] = target: Fes (UniProt P07332); test: as above
[8] = target: Fyn (UniProt P06241); test: as above
[9] = target: Hck (UniProt P08631); test: as above
[10] = target: Jak2 (UniProt O60674); test: as above
[11] = target: MERTK (UniProt Q12866); test: as above
[12] = tested on: c-Abl (mouse); test: as above
[13] = tested on: c-Src; test: as above
[14] = target: Grb2 SH2 (UniProt P62993); test: SH2 binding enrichment of the phosphorylated peptide, bacterial display (enrichment ratio); higher = better substrate or ligand; peptides without Tyr show the background
[15] = target: SHP2-C SH2; test: as above
[16] = target: c-Src SH2; test: as above
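Wherever SH2 binding enrichment of the phosphorylated peptide, bacterial display is given: peptide library displayed on the E. coli surface as eCPX fusions, selected cells deep-sequenced, score is each peptide's frequency after selection divided by its frequency in the input.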
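Wherever phosphorylation enrichment, bacterial display is given: 11-residue human phosphosite peptides and single-mutation variants displayed on the E. coli surface, counted by deep sequencing, each peptide's frequency after selection divided by its frequency in the unselected input library; frequency after pTyr selection over input frequency; kinase dosed for 20-30% of maximal phosphorylation in three min.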

Sequence of Fes (P07332 whole entry, looked up): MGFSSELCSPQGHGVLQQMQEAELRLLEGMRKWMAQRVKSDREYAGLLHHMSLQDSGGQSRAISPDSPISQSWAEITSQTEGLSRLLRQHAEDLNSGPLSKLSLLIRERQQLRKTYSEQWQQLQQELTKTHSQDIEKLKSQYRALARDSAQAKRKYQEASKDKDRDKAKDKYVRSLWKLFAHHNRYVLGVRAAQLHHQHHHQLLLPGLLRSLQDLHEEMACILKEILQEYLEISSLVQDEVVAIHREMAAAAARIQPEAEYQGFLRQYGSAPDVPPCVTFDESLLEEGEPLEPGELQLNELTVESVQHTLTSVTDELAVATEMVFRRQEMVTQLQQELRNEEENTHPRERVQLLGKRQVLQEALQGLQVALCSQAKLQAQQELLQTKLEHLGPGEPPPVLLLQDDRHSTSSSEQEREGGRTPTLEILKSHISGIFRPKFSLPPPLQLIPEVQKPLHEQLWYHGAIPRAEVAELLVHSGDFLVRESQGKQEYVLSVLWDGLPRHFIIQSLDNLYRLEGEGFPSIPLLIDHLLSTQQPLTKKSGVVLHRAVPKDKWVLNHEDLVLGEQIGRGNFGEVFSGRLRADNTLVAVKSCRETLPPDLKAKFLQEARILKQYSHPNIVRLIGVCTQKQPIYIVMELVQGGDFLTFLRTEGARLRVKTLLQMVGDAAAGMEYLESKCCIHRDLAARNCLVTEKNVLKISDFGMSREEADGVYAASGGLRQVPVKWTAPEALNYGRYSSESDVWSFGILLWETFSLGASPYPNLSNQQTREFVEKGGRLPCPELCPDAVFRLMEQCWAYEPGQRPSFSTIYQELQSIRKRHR
Sequence of Hck (P08631 whole entry, looked up): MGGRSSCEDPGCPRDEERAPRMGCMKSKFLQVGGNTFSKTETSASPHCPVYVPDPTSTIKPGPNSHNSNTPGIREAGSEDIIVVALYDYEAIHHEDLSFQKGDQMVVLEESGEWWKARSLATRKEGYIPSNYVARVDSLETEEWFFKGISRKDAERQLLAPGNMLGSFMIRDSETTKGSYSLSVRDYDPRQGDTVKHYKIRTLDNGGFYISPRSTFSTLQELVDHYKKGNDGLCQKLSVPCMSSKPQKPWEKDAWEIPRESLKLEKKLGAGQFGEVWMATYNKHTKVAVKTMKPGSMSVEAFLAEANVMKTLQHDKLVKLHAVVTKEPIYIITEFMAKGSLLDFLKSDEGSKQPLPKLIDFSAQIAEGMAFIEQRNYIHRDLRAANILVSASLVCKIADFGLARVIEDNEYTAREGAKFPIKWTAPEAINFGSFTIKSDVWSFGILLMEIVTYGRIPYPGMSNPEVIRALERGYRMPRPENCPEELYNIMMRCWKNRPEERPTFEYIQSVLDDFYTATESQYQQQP
Sequence of Jak2 (O60674 whole entry, looked up): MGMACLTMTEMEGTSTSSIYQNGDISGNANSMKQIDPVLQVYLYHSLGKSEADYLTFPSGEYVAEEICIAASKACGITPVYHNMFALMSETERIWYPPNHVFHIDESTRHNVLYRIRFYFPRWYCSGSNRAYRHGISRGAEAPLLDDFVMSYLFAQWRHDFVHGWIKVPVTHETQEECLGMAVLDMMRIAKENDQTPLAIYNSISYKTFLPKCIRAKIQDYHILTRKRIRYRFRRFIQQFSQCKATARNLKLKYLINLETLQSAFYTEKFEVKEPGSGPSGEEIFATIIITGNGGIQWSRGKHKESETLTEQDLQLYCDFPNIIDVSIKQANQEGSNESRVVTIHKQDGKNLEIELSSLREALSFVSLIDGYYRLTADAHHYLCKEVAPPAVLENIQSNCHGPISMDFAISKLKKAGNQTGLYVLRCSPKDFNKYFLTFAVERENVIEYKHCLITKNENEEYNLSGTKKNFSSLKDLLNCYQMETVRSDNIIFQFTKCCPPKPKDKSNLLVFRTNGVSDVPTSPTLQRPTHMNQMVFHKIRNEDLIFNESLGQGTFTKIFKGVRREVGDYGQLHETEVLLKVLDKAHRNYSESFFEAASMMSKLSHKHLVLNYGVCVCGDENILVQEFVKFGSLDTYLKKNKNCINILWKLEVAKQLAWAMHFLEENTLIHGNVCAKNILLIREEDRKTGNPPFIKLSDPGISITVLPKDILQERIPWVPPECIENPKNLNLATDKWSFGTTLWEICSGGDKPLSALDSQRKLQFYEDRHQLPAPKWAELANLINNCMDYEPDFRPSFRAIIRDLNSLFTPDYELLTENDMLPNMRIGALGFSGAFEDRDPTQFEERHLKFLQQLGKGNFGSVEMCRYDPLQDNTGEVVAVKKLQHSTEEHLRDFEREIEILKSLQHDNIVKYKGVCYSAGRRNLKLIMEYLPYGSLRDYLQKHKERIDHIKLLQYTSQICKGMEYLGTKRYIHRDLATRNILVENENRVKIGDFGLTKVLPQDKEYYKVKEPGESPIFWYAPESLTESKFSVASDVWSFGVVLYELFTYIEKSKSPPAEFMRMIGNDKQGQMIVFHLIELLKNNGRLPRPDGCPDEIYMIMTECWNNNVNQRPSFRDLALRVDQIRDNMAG
Sequence of Fyn (P06241 whole entry, looked up): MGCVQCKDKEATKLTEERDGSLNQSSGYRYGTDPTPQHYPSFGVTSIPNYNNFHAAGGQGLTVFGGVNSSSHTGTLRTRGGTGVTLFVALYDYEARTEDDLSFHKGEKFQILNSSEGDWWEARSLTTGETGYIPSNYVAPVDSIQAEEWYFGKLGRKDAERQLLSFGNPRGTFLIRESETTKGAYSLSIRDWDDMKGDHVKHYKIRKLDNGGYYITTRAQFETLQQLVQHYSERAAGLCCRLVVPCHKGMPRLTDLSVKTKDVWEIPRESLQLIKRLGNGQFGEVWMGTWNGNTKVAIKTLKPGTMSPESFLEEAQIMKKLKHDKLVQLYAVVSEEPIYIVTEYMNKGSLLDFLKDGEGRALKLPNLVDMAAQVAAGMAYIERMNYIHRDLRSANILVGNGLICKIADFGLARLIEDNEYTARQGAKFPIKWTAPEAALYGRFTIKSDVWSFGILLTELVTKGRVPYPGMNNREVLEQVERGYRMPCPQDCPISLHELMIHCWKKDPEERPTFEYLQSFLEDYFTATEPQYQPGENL
Sequence of EPHB2 (P29323 whole entry, looked up): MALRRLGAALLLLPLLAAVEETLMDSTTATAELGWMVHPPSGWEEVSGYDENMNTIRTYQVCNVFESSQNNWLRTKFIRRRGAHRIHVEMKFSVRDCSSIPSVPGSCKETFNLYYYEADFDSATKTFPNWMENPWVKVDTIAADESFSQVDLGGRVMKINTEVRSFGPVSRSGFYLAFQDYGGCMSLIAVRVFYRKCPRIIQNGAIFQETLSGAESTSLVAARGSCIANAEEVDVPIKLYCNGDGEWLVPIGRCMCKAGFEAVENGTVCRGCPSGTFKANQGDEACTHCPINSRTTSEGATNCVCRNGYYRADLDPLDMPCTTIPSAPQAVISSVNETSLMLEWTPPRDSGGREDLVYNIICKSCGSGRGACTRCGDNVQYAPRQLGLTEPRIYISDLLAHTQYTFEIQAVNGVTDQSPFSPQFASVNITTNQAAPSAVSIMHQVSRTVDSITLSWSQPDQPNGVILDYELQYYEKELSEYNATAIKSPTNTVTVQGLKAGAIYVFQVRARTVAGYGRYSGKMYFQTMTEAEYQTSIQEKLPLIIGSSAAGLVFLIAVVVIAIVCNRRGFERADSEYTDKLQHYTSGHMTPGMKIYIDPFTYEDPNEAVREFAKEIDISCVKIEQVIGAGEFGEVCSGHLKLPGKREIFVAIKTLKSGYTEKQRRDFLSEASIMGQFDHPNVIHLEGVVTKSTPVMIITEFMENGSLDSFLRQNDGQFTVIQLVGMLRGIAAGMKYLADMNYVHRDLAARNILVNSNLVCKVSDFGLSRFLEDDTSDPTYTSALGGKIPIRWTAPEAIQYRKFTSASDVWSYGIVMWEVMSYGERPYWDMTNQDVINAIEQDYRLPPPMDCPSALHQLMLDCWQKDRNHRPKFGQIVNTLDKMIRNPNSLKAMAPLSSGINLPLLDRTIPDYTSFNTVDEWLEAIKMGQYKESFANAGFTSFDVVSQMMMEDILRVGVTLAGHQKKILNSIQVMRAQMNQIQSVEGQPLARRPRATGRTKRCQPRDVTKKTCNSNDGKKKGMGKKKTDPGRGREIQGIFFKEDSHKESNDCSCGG
Sequence of FGFR1 (P11362 whole entry, looked up): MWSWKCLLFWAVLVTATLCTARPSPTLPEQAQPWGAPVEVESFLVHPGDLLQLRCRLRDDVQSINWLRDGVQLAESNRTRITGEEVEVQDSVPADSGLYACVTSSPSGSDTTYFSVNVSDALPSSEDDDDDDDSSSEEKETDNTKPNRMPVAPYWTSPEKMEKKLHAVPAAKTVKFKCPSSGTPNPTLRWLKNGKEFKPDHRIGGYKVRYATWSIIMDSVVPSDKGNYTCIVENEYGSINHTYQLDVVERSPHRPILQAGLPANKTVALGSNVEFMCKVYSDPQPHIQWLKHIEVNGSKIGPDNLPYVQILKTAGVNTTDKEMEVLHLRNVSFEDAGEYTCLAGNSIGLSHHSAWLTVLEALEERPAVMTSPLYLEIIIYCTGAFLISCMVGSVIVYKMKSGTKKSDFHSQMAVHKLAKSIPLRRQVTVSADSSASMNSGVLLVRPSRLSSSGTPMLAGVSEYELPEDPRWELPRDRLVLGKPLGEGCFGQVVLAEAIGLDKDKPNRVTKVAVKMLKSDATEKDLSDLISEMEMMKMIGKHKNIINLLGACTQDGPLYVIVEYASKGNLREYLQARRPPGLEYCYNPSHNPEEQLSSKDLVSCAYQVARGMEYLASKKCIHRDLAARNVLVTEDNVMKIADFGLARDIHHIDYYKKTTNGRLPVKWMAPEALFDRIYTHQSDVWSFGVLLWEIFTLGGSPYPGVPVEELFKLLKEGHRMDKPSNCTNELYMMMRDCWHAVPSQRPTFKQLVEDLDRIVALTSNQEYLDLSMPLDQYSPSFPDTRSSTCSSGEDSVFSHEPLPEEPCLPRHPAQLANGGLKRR

SH2 binding enrichment [14]	SH2 binding enrichment [15]	SH2 binding enrichment [16]	Sequence	phosphorylation enrichment [1]	phosphorylation enrichment [2]	phosphorylation enrichment [3]	phosphorylation enrichment [4]	phosphorylation enrichment [5]	phosphorylation enrichment [6]	phosphorylation enrichment [7]	phosphorylation enrichment [8]	phosphorylation enrichment [9]	phosphorylation enrichment [10]	phosphorylation enrichment [11]	phosphorylation enrichment [12]	phosphorylation enrichment [13]
1.02	1.25	0.876	HLEKKYVRRDS [CSF1R_Y708]	2.92	1.61	2.23	2.42	0.997	1.67	4.2	1.64	1.23	6.5	6.59	2.1	4.16
1.3	1.45	1.28	RFLERYIYNRE [HLA-DPB1_Y57]	0.77	0.852	0.683	0.495	0.784	0.546	0.949	0.842	1.73	0.451	0.533	0.533	0.849
0.86	0.719	0.471	SVMAEYGLFGA [VSX2_Y219_YF]	0.737	0.477	0.596	0.488	0.553	0.424	0.774	7.22	2.94	0.679	0.475	0.594	6.17
0.996	0.707	0.598	GKVFIYHGSSL [ITGA7_Y458]	1.19	0.655	0.614	0.596	0.761	0.546	1.3	0.42	0.571	1.02	0.364	0.672	0.369
0.852	0.531	0.532	YQKDVYDIPPS [NEDD9_Y177]	0.954	0.788	3.2	0.528	0.499	0.611	0.735	3.66	3.38	0.614	7.34	0.734	3.26
0.703	0.636	0.434	KVALVYGQMNQ [ATP5F1B_Y269_E274Q]	0.726	0.496	0.641	0.424	0.634	0.506	1.27	2.16	1.78	0.841	0.425	0.829	3.17
0.774	0.663	0.479	GFSRHCEDGFP [CTNND1_Y217_Y217C_YF]	0.767	0.497	0.555	0.471	0.697	0.485	0.958	0.437	0.441	0.724	0.402	0.83	0.441
0.708	0.942	0.391	QGIIIYKAAYF [SLC25A4_Y187_R188K]	1.66	0.94	1.04	0.948	1.2	1.01	2.36	0.53	0.647	2.63	1.04	1.85	1.06
1.04	1.04	1.05	QITQVYGFYHE [PPP2CA_Y127_D131H]	0.938	0.66	0.877	0.614	0.753	0.872	1.07	10.1	7.96	1.21	3.47	0.67	8.14
1.26	0.836	0.936	FGIAQYCCRMG [LRRK2_Y2023_YF]	0.908	0.751	6.66	0.614	0.584	0.467	0.797	0.423	0.777	0.625	1.25	1.34	0.417
0.86	0.623	0.656	DDERGYRRVRS [GIGYF2_Y268]	0.563	0.306	0.398	0.386	0.407	0.406	0.593	0.366	0.353	0.461	0.455	0.563	0.461
0.706	0.701	0.484	TAGFSYEKWEI [TEC_Y360]	1.52	0.472	0.577	0.533	0.72	1.46	1.21	0.503	0.536	1	0.549	0.694	0.463
0.96	0.854	0.658	QSKGIYFVQLE [MGAT4B_Y262_YF]	1.51	0.972	2.44	1.09	1.41	0.713	1.71	1.1	0.936	1.88	2.38	1.63	1.54
0.744	0.844	0.732	DPGVSYRTREE [PDHA1_Y301]	0.891	0.385	0.61	0.637	0.53	0.368	0.809	0.409	0.461	0.549	0.378	0.647	0.376
0.832	0.77	0.482	KGERGYPGTPG [COL4A1_Y348]	0.384	0.336	0.372	0.354	0.406	0.399	0.433	0.311	0.38	0.359	0.356	0.42	0.419
1.1	0.791	0.582	RESYKYLPSSL [CXXC1_Y218_F219L]	1.09	0.571	0.616	1.21	0.821	0.546	1.17	0.59	0.762	1.11	0.859	1.25	0.993
0.732	0.913	0.674	FGGLRYGFGVL [KRTAP20-2_Y13_YF]	0.786	0.443	0.379	0.733	0.56	0.351	0.876	0.348	0.399	0.753	0.42	0.608	0.35

SH2 binding enrichment [14]	SH2 binding enrichment [15]	SH2 binding enrichment [16]	Sequence	phosphorylation enrichment [1]	phosphorylation enrichment [2]	phosphorylation enrichment [3]	phosphorylation enrichment [4]	phosphorylation enrichment [5]	phosphorylation enrichment [6]	phosphorylation enrichment [7]	phosphorylation enrichment [8]	phosphorylation enrichment [9]	phosphorylation enrichment [10]	phosphorylation enrichment [11]	phosphorylation enrichment [12]	phosphorylation enrichment [13]
1.05	40.4	2.64	TNLVPYTRIHF [TUBA1A_Y262_P263T]	0.765	0.455	0.423	0.468	0.506	0.385	0.829	0.45	0.487	0.682	0.374	0.469	0.441
0.9	1.09	0.591	TNYRLYLRSLE [MTM1_Y71]	1.11	0.666	0.556	0.595	0.776	0.524	1.3	0.552	0.555	1.22	0.554	1.31	0.504
0.835	1.39	0.961	YIGVTYKNKED [PDGFRA_Y993_E996K]	0.896	0.564	0.505	0.819	0.747	0.533	1.07	0.505	0.753	0.809	0.44	0.675	0.476
0.953	0.596	0.633	KFFRVYQGQQP [MUTYH_Y494_V490F]	0.898	0.452	0.507	0.592	0.78	0.431	0.842	0.623	0.495	0.627	0.447	0.652	0.457
0.706	0.663	0.451	IENKLYGMSDS [RET_Y1062_P1067S]	0.805	0.464	0.524	0.484	0.511	0.646	0.948	0.438	0.543	1.08	0.547	0.678	0.614
0.91	0.959	0.704	FIAVGYVDDSQ [HLA-A_Y51_T55S]	0.783	0.469	0.491	0.391	0.629	0.444	1.08	0.333	0.445	0.839	0.3	0.617	0.394
0.847	0.288	0.539	PSDLLYIPDIQ [ITGA2B_Y845_L847P]	2	1.35	1.1	1.21	1.37	0.494	1.77	0.917	0.921	2	0.953	1.89	0.808
0.819	0.612	0.448	ALEKTYNTYRS [B4GALNT2_Y538]	0.568	0.336	0.349	0.391	0.439	0.35	0.658	0.517	0.438	0.497	0.312	0.433	0.925
0.851	0.835	0.743	CTTIHYNFMSN [TP53_Y234_C238S_YF]	1.12	0.621	0.58	0.561	0.745	0.562	1.24	0.437	0.545	1.07	0.527	0.833	0.483
1.07	0.927	0.704	LDCNEYFRDLN [HPRT1_Y198_Y195C]	1.82	0.933	0.922	0.966	1.34	0.697	1.73	0.906	0.911	1.5	0.687	1.15	0.487
0.801	0.666	0.581	RRIHSYRGFLW [VHL_Y112_H115Y_YF]	0.622	0.343	1.73	0.389	0.378	0.458	0.575	0.577	0.377	0.577	0.577	0.426	0.552
0.984	0.916	0.737	GMTLSYLFWEP [NDUFS8_Y74_R77W]	1.85	0.875	0.737	4.73	3.63	3.7	1.59	0.501	0.629	5.21	1.43	1.32	0.659
0.9	0.553	0.5	GTFEDYVEGLR [MYL6_Y89_YF]	1.08	0.534	0.534	0.545	0.685	0.454	1.11	0.427	0.508	0.971	0.461	0.688	0.416
1.61	1.6	1.64	FLAVGYHKPRI [IDS_Y225_H229R]	0.638	0.477	0.44	0.379	0.5	0.402	0.838	0.426	0.374	0.502	0.272	0.481	0.305
0.652	0.563	0.328	PEAALYGRFTF [FYN_Y440_I445F]	1.21	1.14	1.2	1.29	0.971	2.75	1.6	10.1	8.89	1.41	5.92	4.39	7.87
0.805	0.601	0.758	GKTQQYDCKWY [BCR_Y751]	0.864	0.554	0.532	0.464	0.598	0.432	1.05	0.441	0.554	1.05	0.515	0.769	0.55
